# B1: Lactoferrin (protein, UniProt P02788 20-710, looked up)
# Lactotransferrin: GRRRSVQWCAVSQPEATKCFQWQRNMRKVRGPPVSCIKRDSPIQCIQAIAENRADAVTLDGGFIYEAGLAPYKLRPVAAEVYGTERQPRTHYYAVAVVKKGGSFQLNELQGLKSCHTGLRRTAGWNVPIGTLRPFLNWTGPPEPIEAAVARFFSASCVPGADKGQFPNLCRLCAGTGENKCAFSSQEPYFSYSGAFKCLRDGAGDVAFIRESTVFEDLSDEAERDEYELLCPDNTRKPVDKFKDCHLARVPSHAVVARSVNGKEDAIWNLLRQAQEKFGKDKSPKFQLFGSPSGQKDLLFKDSAIGFSRVPPRIDSGLYLGSGYFTAIQNLRKSEEEVAARRARVVWCAVGEQELRKCNQWSGLSEGSVTCSSASTTEDCIALVLKGEADAMSLDGGYVYTAGKCGLVPVLAENYKSQQSSDPDPNCVDRPVEGYLAVAVVRRSDTSLTWNSVKGKKSCHTAVDRTAGWNIPMGLLFNQTGSCKFDEYFSQSCAPGSDPRSNLCALCIGDEQGENKCVPNSNERYYGYTGAFRCLAENAGDVAFVKDVTVLQNTDGNNNEAWAKDLKLADFALLCLDGKRKPVTEARSCHLAMAPNHAVVSRMDKVERLKQVLLHQQAKFGRNGSDCPDKFCLFQSETKNLLFNDNTECLARLHGKTTYEKYLGPQYVAGITNLKKCSTSPLLEACEFLRK
# Key:
# [1] = system: Staphylococcus aureus ATCC 25923; test: Determination of MIC and MBC, Staphylococcus aureus; assay type: cell-based
# Description: (§1) A series of test tubes was prepared containing the culture broth inoculated with the test micro-organism and the substance to be tested was introduced at decreasing scalar concentrations. […] The test tubes in which the microbial population developed were then determined by observing visually the turbidity that is indicative of growth. Test tubes in which the substance is present at a sufficient concentration to inhibit growth remain clear. When the nature itself of the sample prevents visual reading or if it is wished to determine whether the lack of development is due to a microbiostatic or microbicidal action, transfers are made to appropriate agar media for confirmation. The concentration of sample at which growth of the micro-organisms is inhibited is considered to be the Minimum Inhibitory Concentration (MIC), while that at which viable micro-organisms are no longer present is considered to be the Minimum Bactericidal Concentration (MBC) The antibacterial activity of these substances against Staphylococcus aureus acnes ATCC 25923 and Staphylococcus epidermidis ATCC 12228 was tested according to the above-described method.
# [2] = system: Staphylococcus epidermidis ATCC 12228; test: Determination of MIC and MBC, Staphylococcus epidermidis; assay type: cell-based
# Description: as §1
molecule,measurement,setting,value
B1,MIC,[1],>20 mg/mL
same,MIC,[2],>20 mg/mL

# From US20190175467A1, “COMPOSITION FOR THE TREATMENT OF ACNE” (ROTTAPHARM LTD., priority 2015, published 2019)
